How the values were obtained:
[1] = target: T1, cMet-Fc fusion protein (extracellular domain of the cMet receptor expressed as an Fc-fusion protein) (human, UniProt P08581 25-932); assay: phage ELISA, cMet-Fc vs TRAIL-Fc
T1 construct: extracellular domain; also called soluble cMet-Fc-fusion protein; soluble cMet receptor; not shown: Fc part
How it was run: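 Plates coated overnight at 4 C with 0.5 μg/mL cMet-Fc, or TRAIL-Fc as background, were blocked with 3% BSA in PBST. Peptide-displaying phage were bound 2 h at room temperature. Bound phage were detected with HRP-conjugated anti-M13 antibody.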

[2] = target: T2, human cMet expressed on 3T3 cells (human, UniProt P08581 25-1390); assay: whole cell phage ELISA, 3T3 human cMet vs 3T3
T2 construct: whole, on cells; cells fixed with glutaraldehyde; also called cell surface-expressed human cMet; 3T3 cells that over-express human cMet
T2 sequence (P08581 25-1390): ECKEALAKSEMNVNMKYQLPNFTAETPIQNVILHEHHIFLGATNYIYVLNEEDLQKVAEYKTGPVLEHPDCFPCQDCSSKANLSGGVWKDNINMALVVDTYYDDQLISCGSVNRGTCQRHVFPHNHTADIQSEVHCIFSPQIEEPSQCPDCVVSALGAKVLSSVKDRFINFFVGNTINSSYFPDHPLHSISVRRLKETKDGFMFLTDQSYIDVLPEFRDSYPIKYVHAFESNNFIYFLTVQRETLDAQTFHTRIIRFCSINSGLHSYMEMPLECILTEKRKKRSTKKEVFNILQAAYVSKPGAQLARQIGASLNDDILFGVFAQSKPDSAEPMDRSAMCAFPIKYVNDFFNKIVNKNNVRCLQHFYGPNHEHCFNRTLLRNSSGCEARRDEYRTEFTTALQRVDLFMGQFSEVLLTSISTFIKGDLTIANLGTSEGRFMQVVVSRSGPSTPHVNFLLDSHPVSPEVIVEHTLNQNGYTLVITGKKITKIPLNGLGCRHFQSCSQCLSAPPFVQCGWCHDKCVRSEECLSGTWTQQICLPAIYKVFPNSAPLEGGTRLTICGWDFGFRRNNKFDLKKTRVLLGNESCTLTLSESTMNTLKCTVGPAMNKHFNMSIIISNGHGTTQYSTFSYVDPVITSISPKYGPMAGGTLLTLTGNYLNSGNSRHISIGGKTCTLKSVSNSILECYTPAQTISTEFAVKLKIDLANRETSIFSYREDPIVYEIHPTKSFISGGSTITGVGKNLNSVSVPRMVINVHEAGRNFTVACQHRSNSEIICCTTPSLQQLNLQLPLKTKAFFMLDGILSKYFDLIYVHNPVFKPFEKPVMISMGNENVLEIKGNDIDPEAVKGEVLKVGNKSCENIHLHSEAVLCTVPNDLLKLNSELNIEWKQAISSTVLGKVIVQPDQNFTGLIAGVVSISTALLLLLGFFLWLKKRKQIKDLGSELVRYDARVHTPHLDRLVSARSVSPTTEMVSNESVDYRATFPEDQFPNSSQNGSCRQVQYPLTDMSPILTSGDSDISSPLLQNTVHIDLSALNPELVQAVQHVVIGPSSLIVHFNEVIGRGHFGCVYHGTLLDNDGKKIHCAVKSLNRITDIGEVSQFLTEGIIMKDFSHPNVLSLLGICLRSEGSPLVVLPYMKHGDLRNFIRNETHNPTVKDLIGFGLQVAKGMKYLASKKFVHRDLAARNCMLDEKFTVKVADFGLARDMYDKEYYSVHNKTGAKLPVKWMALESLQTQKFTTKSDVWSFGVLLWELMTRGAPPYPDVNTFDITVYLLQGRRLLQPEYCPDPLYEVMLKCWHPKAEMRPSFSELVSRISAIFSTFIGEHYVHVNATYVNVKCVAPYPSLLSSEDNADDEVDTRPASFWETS
How it was run: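 3T3 cells over-expressing human cMet, compared against parental 3T3, seeded at 10⁵ per well and fixed with 0.1% glutaraldehyde for 12 min at 37 C. Blocked peptide-displaying phage bound for 1 h at room temperature. After PBST washes, bound phage was detected with HRP-conjugated anti-M13 antibody.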

[3] = target: T1, cMet-Fc fusion protein (extracellular …); assay: phage ELISA on cMet-Fc, competitor HGF 100 ng/mL
How it was run: (§1)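 Plates coated with 0.5 μg/mL cMet-Fc, with TRAIL-Fc as background, then blocked with 3% BSA. Bound phage detected with HRP anti-M13 antibody.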

[4] = target: T1, cMet-Fc fusion protein (extracellular …); assay: phage ELISA on cMet-Fc, competitor HGF 500 ng/mL
How it was run: as §1

T1 sequence (P08581 25-932): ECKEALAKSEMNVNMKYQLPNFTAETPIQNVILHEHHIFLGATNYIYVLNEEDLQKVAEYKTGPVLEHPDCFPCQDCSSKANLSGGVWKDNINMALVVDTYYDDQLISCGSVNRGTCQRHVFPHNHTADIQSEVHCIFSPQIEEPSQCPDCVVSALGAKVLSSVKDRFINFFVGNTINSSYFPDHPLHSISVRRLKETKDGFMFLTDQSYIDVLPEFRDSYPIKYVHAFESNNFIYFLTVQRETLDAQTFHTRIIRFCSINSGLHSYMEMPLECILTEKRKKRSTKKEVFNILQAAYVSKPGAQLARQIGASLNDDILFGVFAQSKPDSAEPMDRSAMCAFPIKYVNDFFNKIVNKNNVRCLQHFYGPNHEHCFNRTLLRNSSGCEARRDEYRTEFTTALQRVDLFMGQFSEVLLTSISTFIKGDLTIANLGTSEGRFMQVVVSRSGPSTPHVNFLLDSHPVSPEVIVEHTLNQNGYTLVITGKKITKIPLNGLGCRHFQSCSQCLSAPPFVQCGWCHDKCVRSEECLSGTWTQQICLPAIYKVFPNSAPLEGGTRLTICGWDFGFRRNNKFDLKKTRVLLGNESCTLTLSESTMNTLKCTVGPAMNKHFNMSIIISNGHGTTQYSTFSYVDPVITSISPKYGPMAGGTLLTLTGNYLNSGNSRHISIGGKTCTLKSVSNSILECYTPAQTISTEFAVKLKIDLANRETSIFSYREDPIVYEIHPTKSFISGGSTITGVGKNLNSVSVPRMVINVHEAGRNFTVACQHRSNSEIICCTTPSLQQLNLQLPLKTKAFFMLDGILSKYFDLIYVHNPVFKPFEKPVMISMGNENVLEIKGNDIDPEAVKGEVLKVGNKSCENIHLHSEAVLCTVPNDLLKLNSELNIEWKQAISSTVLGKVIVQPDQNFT

Row | Binder | Protein ELISA (fold over background) [1] [fold] | WC ELISA (fold over background) [2] [fold] | % of binding in the absence of HGF [3] [%] | % of binding in the absence of HGF [4] [%]
1 | AQEWEREYFVDGFWGSWFGIPH [130-E10 peptide-displaying phage (SEQ ID NO: 472)] | 3.7 | 1.8 | 100 | 92
2 | AQLFQYLWHDDPQGAFFQLSMW [98-F05 peptide-displaying phage (SEQ ID NO: 483)] | 3.1 | 1.23 | 88 | 57
3 | AQVEDMATVHFKFNPATHEVIW [524-H02 peptide-displaying phage (SEQ ID NO: 492)] | 3.2 | 1.53 | 26 | 25
4 | AQHWDYDSGSDFWFPVFFLEHH [79-B02 peptide-displaying phage (SEQ ID NO: 475)] | 3.5 | 1.3 | 102 | 86
5 | AGDHYCWEEWWFCWDSGT [482-A12 peptide-displaying phage (SEQ ID NO: 021)] | 3.5 | 1.37 | 98 | 79
6 | AQWPHDGLVHWGEVIMLRF [117-F04 peptide-displaying phage (SEQ ID NO: 479)] | 3.3 | 1.37 | 93 | 91
7 | AQDNTADQMFNGFHVLAMYMV [117-E09 peptide-displaying phage (SEQ ID NO: 481)] | 3.3 | 1.37 | 109 | 102
8 | AQFSGLVMYGRTHEVQWTFGSM [94-G02 peptide-displaying phage (SEQ ID NO: 477)] | 3.5 | 1.3 | 108 | 76
9 | AQHGYLSPLKQYQMSHVEFWTY [94-A06 peptide-displaying phage (SEQ ID NO: 476)] | 3.5 | 1.17 | 84 | 96
10 | AQHVVTLTLIQMPFAFNFEPRM [118-B12 peptide-displaying phage (SEQ ID NO: 484)] | 3.1 | 1.3 | 98 | 112
11 | AQHMDPAEWDWFIRIYSPVVNP [149-E06 peptide-displaying phage (SEQ ID NO: 487)] | 3 | 1.8 | 80 | 86
12 | AQRDYLFYWNDGSYQPWQVFVG [523-A04 peptide-displaying phage (SEQ ID NO: 493)] | 5.5 | 1.3 | 133 | 143
13 | AQMGHHWDVQWDYKLFHVARGD [136-D01 peptide-displaying phage (SEQ ID NO: 473)] | 3.7 | 1.23 | 85 | 149
14 | AQWGAVDNDWYDWEMEQIWMFE [527-E08 peptide-displaying phage (SEQ ID NO: 491)] | 3.2 | 1.23 | 98 | 95
15 | AQMWHRVHDPGYTFEVTWLWDN [166-H04 peptide-displaying phage (SEQ ID NO: 488)] | 3 | 1.27 | 77 | 85
16 | AGVWICRVWDDECFFQGT [376-E05 peptide-displaying phage (SEQ ID NO: 020)] | 3.7 | 1.37 | 122 | 121
17 | AQQWMFQIHQSMAWPYEWIDSY [524-D07 peptide-displaying phage (SEQ ID NO: 494)] | 3.9 | 1.23 | 105 | 104

Row | Binder | Protein ELISA (fold over background) [1] [fold] | WC ELISA (fold over background) [2] [fold] | % of binding in the absence of HGF [3] [%] | % of binding in the absence of HGF [4] [%]
18 | AQWNWDMGFMWTTDSAQVQPSM [96-D06 peptide-displaying phage (SEQ ID NO: 489)] | 3 | 1.37 | 154 | 151
19 | AQGGRYPFYDTDWFKWEMYVL [527-A10 peptide-displaying phage (SEQ ID NO: 496)] | 3.8 | 1.3 | 84 | 78
20 | AQAEWVITSEEFYWKMADFGPP [75-B12 peptide-displaying phage (SEQ ID NO: 478)] | 3.4 | 1.23 | 95 | 108
21 | AQAYEWWADESIFNHGYYWGHQ [94-B08 peptide-displaying phage (SEQ ID NO: 470)] | 3.8 | 1.2 | 111 | 121
22 | AGWFECEFGFWGCNWLGT [437-A09 peptide-displaying phage (SEQ ID NO: 018)] | 3.9 | 1.13 | 89 | 78
23 | AQFMYEKEHYVMSISLPGLWFY [122-D07 peptide-displaying phage (SEQ ID NO: 486)] | 3 | 1.63 | 102 | 92
24 | AQWNQWDEFMWFLNPPPIGLMW [151-B08 peptide-displaying phage (SEQ ID NO: 480)] | 3.3 | 1.23 | 102 | 368
25 | AQVGESLDDGWTFFSDKWFDFF [27-D10 peptide-displaying phage (SEQ ID NO: 485)] | 3 | 1.17 | 111 | 131
26 | AQDPGFSKHSMGHGYPSKMNWG [115-G02 peptide-displaying phage (SEQ ID NO: 471)] | 3.7 | 1.27 | 59 | 0
27 | AQSDHDHAHWGVKHWPFRRYQ [93-B10 peptide-displaying phage (SEQ ID NO: 482)] | 3.1 | 1.2 | 0 | 0
28 | AQGIAWQLEWSYMPQSPPSFDR [522-H03 peptide-displaying phage (SEQ ID NO: 495)] | 4.5 | 1.17 | 107 | 94
29 | AQGFELWVDHTRNFFIAISP [127-A07 peptide-displaying phage (SEQ ID NO: 469)] | 3.8 | 1.2 | 101 | 107
30 | AQKTWFLEADLFQMFQEVTWQF [103-C04 peptide-displaying phage (SEQ ID NO: 490)] | 3 | 1.4 | 73 | 86
31 | AGTVYCSWESSECWWVGT [352-E04 peptide-displaying phage (SEQ ID NO: 019)] | 3.9 | 1.37 | 88 | 74
32 | AGYYHCIDDFPQCKWMGT [482-D02 peptide-displaying phage (SEQ ID NO: 017)] | 3.9 | 1.37 | 66 | 44
33 | AQELFQILEKQMWSDFMEWATP [15-D02 peptide-displaying phage (SEQ ID NO: 474)] | 3.6 | 1.23 | 97 | 118
